Paper PMC9482650, “Quantitative fragmentomics allow affinity mapping of interactomes” (Nature Communications, 2022)

B1: CTNNA2, P26232 (peptide)
chain: LSEFKAMDSF

Target: T1, SYNJ2BP, P57105
T1 sequence (P57105 8-110, limits assumed, looked up): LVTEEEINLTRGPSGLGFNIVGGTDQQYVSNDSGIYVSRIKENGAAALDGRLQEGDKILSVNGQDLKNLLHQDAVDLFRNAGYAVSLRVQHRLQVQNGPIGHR
Test: holdup assay
Design: key: below the threshold = too weak to quantify, mostly under pKd 3.1 to 4
Details: plain residues with an end cap or a label only (N-terminal biotin on a linker: ado-ado)

Binder | pKd
B1 | below the threshold

Target: T2, LRRC7, Q96NW7
T2 sequence (Q96NW7 1440-1537, limits assumed, looked up): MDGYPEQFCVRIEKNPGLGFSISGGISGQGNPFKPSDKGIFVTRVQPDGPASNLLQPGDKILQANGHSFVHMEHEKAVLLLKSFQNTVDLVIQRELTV
Test: holdup assay
Design: key: below the threshold = too weak to quantify, mostly under pKd 3.1 to 4
Details: plain residues with an end cap or a label only (N-terminal biotin on a linker: ado-ado)

Binder | pKd
B1 | below the threshold

Target: T3, GRIP1_2, Q9Y3R0
T3 sequence (Q9Y3R0 145-248, limits assumed, looked up): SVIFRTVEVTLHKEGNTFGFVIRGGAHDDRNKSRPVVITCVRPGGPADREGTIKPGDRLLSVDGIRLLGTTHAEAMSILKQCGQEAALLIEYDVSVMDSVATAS
Test: holdup assay
Design: key: below the threshold = too weak to quantify, mostly under pKd 3.1 to 4
Details: plain residues with an end cap or a label only (N-terminal biotin on a linker: ado-ado)

Binder | pKd
B1 | below the threshold

Target: CASK, O14936
Test: holdup assay
Design: key: below the threshold = too weak to quantify, mostly under pKd 3.1 to 4
Details: plain residues with an end cap or a label only (N-terminal biotin on a linker: ado-ado)

Sequence of CASK, O14936 (O14936 487-570): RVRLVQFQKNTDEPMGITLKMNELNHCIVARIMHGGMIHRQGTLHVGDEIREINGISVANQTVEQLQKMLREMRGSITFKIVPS

Binder | pKd
B1 | below the threshold

Target: T4, PTPN13_1, Q12923
T4 sequence (Q12923 1088-1188, limits assumed, looked up): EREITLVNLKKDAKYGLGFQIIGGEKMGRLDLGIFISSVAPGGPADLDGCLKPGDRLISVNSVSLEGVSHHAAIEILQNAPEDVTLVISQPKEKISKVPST
Test: holdup assay
Design: key: below the threshold = too weak to quantify, mostly under pKd 3.1 to 4
Details: plain residues with an end cap or a label only (N-terminal biotin on a linker: ado-ado)

Binder | pKd
B1 | below the threshold

Target: SNX27, Q96L92
Test: holdup assay
Design: key: below the threshold = too weak to quantify, mostly under pKd 3.1 to 4
Details: plain residues with an end cap or a label only (N-terminal biotin on a linker: ado-ado)

Binder | pKd
B1 | below the threshold

Target: T5, PDZRN3_1, Q9UPQ7
T5 sequence (Q9UPQ7 244-349, limits assumed, looked up): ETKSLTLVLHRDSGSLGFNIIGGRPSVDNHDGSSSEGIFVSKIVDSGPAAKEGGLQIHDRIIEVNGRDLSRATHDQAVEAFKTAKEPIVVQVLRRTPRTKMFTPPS
Test: holdup assay
Design: key: below the threshold = too weak to quantify, mostly under pKd 3.1 to 4
Details: plain residues with an end cap or a label only (N-terminal biotin on a linker: ado-ado)

Binder | pKd
B1 | below the threshold

Target: FRMPD2_3, Q68DX3
Test: holdup assay
Design: key: below the threshold = too weak to quantify, mostly under pKd 3.1 to 4
Details: plain residues with an end cap or a label only (N-terminal biotin on a linker: ado-ado)

Sequence of FRMPD2_3, Q68DX3 (Q68DX3 1073-1166): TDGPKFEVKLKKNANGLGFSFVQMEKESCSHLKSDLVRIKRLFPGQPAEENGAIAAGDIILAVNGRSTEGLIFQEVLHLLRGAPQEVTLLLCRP

Binder | pKd
B1 | below the threshold

Target: Inadl_3, Q8NI35
Test: holdup assay
Design: key: below the threshold = too weak to quantify, mostly under pKd 3.1 to 4
Details: plain residues with an end cap or a label only (N-terminal biotin on a linker: ado-ado)

Sequence of Inadl_3, Q8NI35 (Q8NI35 359-469): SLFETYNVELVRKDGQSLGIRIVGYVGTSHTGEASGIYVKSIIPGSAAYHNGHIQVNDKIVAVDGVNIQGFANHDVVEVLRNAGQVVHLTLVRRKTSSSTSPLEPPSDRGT

Binder | pKd
B1 | below the threshold

Target: T6, TIAM2, Q8IVF5
T6 sequence (Q8IVF5 885-986, limits assumed, looked up): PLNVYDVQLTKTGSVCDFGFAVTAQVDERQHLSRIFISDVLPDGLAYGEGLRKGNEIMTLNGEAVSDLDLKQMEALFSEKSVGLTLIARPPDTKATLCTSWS
Test: holdup assay
Design: key: below the threshold = too weak to quantify, mostly under pKd 3.1 to 4
Details: plain residues with an end cap or a label only (N-terminal biotin on a linker: ado-ado)

Binder | pKd
B1 | 4.11

Target: FRMPD4, Q14CM0
Test: holdup assay
Design: key: below the threshold = too weak to quantify, mostly under pKd 3.1 to 4
Details: plain residues with an end cap or a label only (N-terminal biotin on a linker: ado-ado)

Sequence of FRMPD4, Q14CM0 (Q14CM0 67-160): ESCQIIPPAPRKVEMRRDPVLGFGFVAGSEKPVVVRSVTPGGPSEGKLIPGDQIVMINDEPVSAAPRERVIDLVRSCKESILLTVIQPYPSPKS

Binder | pKd
B1 | below the threshold

Target: T7, FRMPD1, Q5SYB0
T7 sequence (Q5SYB0 52-145, limits assumed, looked up): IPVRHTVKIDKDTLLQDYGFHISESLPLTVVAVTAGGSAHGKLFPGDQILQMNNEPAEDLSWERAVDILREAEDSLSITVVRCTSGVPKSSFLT
Test: holdup assay
Design: key: below the threshold = too weak to quantify, mostly under pKd 3.1 to 4
Details: plain residues with an end cap or a label only (N-terminal biotin on a linker: ado-ado)

Binder | pKd
B1 | below the threshold

Target: T8, SNTG1, Q9NSN8
T8 sequence (Q9NSN8 52-150, limits assumed, looked up): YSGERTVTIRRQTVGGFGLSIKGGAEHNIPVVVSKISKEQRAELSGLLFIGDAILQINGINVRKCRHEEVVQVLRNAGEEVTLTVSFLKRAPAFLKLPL
Test: holdup assay
Design: key: below the threshold = too weak to quantify, mostly under pKd 3.1 to 4
Details: plain residues with an end cap or a label only (N-terminal biotin on a linker: ado-ado)

Binder | pKd
B1 | below the threshold

Target: T9, TX1BP3, O14907
T9 sequence (O14907 10-122, limits assumed, looked up): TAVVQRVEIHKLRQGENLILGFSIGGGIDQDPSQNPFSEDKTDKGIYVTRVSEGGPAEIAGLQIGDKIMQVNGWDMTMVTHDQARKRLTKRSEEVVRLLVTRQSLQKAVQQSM
Test: holdup assay
Design: key: below the threshold = too weak to quantify, mostly under pKd 3.1 to 4
Details: plain residues with an end cap or a label only (N-terminal biotin on a linker: ado-ado)

Binder | pKd
B1 | below the threshold

Target: GIPC2, Q8TF65
Test: holdup assay
Design: key: below the threshold = too weak to quantify, mostly under pKd 3.1 to 4
Details: plain residues with an end cap or a label only (N-terminal biotin on a linker: ado-ado)

Sequence of GIPC2, Q8TF65 (Q8TF65 112-203): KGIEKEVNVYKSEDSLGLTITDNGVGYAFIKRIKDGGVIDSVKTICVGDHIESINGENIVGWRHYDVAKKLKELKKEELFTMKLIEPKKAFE

Binder | pKd
B1 | below the threshold

Target: T10, PDZD2_2, O15018
T10 sequence (O15018 329-429, limits assumed, looked up): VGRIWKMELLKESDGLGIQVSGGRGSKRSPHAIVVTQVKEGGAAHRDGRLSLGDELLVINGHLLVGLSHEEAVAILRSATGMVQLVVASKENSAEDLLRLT
Test: holdup assay
Design: key: below the threshold = too weak to quantify, mostly under pKd 3.1 to 4
Details: plain residues with an end cap or a label only (N-terminal biotin on a linker: ado-ado)

Binder | pKd
B1 | below the threshold

Target: DLG5_1, Q8TDM6
Test: holdup assay
Design: key: below the threshold = too weak to quantify, mostly under pKd 3.1 to 4
Details: plain residues with an end cap or a label only (N-terminal biotin on a linker: ado-ado)

Sequence of DLG5_1, Q8TDM6 (Q8TDM6 617-713): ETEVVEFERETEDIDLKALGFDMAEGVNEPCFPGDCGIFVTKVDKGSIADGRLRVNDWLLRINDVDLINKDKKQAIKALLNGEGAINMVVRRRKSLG

Binder | pKd
B1 | below the threshold

Target: T11, PCLO, Q9Y6V0
T11 sequence (Q9Y6V0 4491-4600, limits assumed, looked up): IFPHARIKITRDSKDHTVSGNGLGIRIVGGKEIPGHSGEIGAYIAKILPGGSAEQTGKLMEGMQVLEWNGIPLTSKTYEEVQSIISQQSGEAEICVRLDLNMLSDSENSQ
Test: holdup assay
Design: key: below the threshold = too weak to quantify, mostly under pKd 3.1 to 4
Details: plain residues with an end cap or a label only (N-terminal biotin on a linker: ado-ado)

Binder | pKd
B1 | below the threshold

Target: T12, DFNB31_2, Q9P202
T12 sequence (Q9P202 274-371, limits assumed, looked up): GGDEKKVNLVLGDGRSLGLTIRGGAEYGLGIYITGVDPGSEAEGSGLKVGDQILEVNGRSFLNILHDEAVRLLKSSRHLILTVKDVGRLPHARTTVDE
Test: holdup assay
Design: key: below the threshold = too weak to quantify, mostly under pKd 3.1 to 4
Details: plain residues with an end cap or a label only (N-terminal biotin on a linker: ado-ado)

Binder | pKd
B1 | below the threshold

Target: MAGI1_2, Q96QZ7
Test: holdup assay
Design: key: below the threshold = too weak to quantify, mostly under pKd 3.1 to 4
Details: plain residues with an end cap or a label only (N-terminal biotin on a linker: ado-ado)

Sequence of MAGI1_2, Q96QZ7 (Q96QZ7 456-580): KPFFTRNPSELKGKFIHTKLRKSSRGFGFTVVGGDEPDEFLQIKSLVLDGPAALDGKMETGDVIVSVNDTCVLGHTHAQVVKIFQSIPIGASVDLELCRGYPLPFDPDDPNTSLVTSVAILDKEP

Binder | pKd
B1 | below the threshold

Target: T13, MPP2, Q14168
T13 sequence (Q14168 180-250, limits assumed, looked up): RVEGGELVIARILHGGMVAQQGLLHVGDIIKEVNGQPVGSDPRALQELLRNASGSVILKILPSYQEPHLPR
Test: holdup assay
Design: key: below the threshold = too weak to quantify, mostly under pKd 3.1 to 4
Details: plain residues with an end cap or a label only (N-terminal biotin on a linker: ado-ado)

Binder | pKd
B1 | below the threshold

Target: T14, DFNB31_1, Q9P202
T14 sequence (Q9P202 135-233, limits assumed, looked up): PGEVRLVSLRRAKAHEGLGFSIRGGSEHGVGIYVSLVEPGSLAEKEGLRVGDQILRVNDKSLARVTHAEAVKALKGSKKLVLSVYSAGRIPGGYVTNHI
Test: holdup assay
Design: key: below the threshold = too weak to quantify, mostly under pKd 3.1 to 4
Details: plain residues with an end cap or a label only (N-terminal biotin on a linker: ado-ado)

Binder | pKd
B1 | below the threshold

Target: GRIP2_6, Q9C0E4
Test: holdup assay
Design: key: below the threshold = too weak to quantify, mostly under pKd 3.1 to 4
Details: plain residues with an end cap or a label only (N-terminal biotin on a linker: ado-ado)

Sequence of GRIP2_6, Q9C0E4 (Q9C0E4 648-740): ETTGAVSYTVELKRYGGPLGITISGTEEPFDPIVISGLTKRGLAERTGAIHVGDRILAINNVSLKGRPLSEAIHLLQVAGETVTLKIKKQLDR

Binder | pKd
B1 | below the threshold
